Measured values as given in paper PMC4274154, “DEAF1 Binds Unmethylated and Variably Spaced CpG Dinucleotide Motifs”.

T1: DEAF1-FLAG (UniProt O75398 1-565)
T1 sequence: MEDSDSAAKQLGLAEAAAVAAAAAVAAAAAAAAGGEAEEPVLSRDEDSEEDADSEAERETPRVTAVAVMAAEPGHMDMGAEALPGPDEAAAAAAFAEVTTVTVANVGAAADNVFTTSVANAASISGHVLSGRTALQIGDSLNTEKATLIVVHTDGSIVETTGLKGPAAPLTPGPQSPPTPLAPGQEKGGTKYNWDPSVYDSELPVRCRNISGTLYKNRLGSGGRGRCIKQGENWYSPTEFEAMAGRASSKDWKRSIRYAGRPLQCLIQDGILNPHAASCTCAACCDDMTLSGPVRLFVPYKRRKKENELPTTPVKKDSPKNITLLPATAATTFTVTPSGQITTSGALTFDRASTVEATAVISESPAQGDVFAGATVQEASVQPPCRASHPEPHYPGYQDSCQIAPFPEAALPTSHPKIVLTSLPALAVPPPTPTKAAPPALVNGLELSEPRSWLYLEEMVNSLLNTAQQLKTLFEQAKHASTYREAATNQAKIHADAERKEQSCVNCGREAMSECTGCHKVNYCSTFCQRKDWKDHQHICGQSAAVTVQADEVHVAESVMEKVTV

B1: 9-space probe (dsDNA)
DNA 1: TTGAGTTCGGGAAAACTTCGGGCTCAA
DNA 2: TTGAGCCCGAAGTTTTCCCGAACTCAA
B2: 10-space probe (dsDNA)
DNA 1: TTGAGTTCGGGAAAAACTTCGGGCTCAA
DNA 2: TTGAGCCCGAAGTTTTTCCCGAACTCAA
B3: 8mut (TTCGGG to AACGCC in both half-sites) (dsDNA)
DNA 1: TTGAGAACGCCAAACAACGCCCTCAA
DNA 2: TTGAGGGCGTTGTTTGGCGTTCTCAA
B4: 6mut (TTCGGG to AACGCC in both half-sites) (dsDNA)
DNA 1: TTGAGAACGCCTGAACGCCCTCAA
DNA 2: TTGAGGGCGTTCAGGCGTTCTCAA
B5: 8-space probe (two TTCGGG motifs) (dsDNA)
DNA 1: TTGAGTTCGGGAAACTTCGGGCTCAA
DNA 2: TTGAGCCCGAAGTTTCCCGAACTCAA
B6: 6-space probe (two TTCGGG motifs) (dsDNA)
DNA 1: TTGAGTTCGGGTGTTCGGGCTCAA
DNA 2: TTGAGCCCGAACACCCGAACTCAA
B7: 11-space probe (dsDNA)
DNA 1: TTGAGTTCGGGAAAAAACTTCGGGCTCAA
DNA 2: TTGAGCCCGAAGTTTTTTCCCGAACTCAA
B8: 6-space methylated probe (dsDNA)
DNA 1: TTGAGTTCGGGTGTTCGGGCTCAA
DNA 2: TTGAGCCCGAACACCCGAACTCAA
modifications: 5-methylcytosine on both strands at the CpG of the second half-site
B9: EIF4G3 promoter probe (dsDNA)
DNA 1: ACTTCGGACTTTTTCGGAAT
DNA 2: ATTCCGAAAAAGTCCGAAGT

molecular target: T1, DEAF1-FLAG; experiment: EMSA; EMSA: 200 ng DEAF1-FLAG, 30 min at room temperature, 1x EMSA binding buffer (composition and pH not given), 1 ug dA:dT, 5% native polyacrylamide gel; details: protein: recombinant; tags: FLAG; chain copies: 2; label: 32P

Question: Does B1 bind?
Answer: Result: binds

Question: Does B2 bind?
Answer: Result: binds

Question: Does B3 bind?
Answer: Result: no binding

Question: Does B4 bind?
Answer: Result: no binding

Question: Does B5 bind?
Answer: Result: binds

Question: Does B6 bind?
Answer: Result: binds

Question: Does B7 bind?
Answer: Result: binds

Question: Does B8 bind?
Answer: Result: no binding

Question: Does B9 bind?
Answer: Result: binds
